Data on 17 molecules can be found in patent publication US20080095772A1 (Chugai, published 2008).

B1: humanized #23-57-137-1 antibody, H chain version a, L chain version m (antibody, V domains shown)
VH: QVQLVESGGGVVQPGRSLRLSCAASGFTFSSYGMSWVRQAPGKGLEWVATISSGGSYTYYPDSVKGRFTISRDNSKNTLYLQMNSLRAEDTAVYYCARQTTMTYFAYWGQGTLVTVSS
VL: QLVLTQSPSASASLGASVKLTCTLSSQHSTYTIEWYQQQPEKGPRYLMDLKQDGSHSTGDGIPDRFSGSSSGAERYLTISSLQSEDEADYYCGVGDTIKEQFVYVFGGGTKLTVLG
notes: Human Cγ1 and human Cλ C regions; Expressed in COS-7 for ELISA and in CHO for BIACORE; also called hMBCm
B2: humanized #23-57-137-1 antibody, H chain version a, L chain version q (antibody, V domains shown)
VH: QVQLVESGGGVVQPGRSLRLSCAASGFTFSSYGMSWVRQAPGKGLEWVATISSGGSYTYYPDSVKGRFTISRDNSKNTLYLQMNSLRAEDTAVYYCARQTTMTYFAYWGQGTLVTVSS
VL: QLVLTQSPSASASLGASVKLTCTLSSQHSTYTIEWYQQQPEKGPKYLMDLKQDGSHSTGDGIPDRFSGSSSGAERYLTISSLQSEDEADYICGVGDTIKEQFVYVFGGGTKLTVLG
notes: Human Cγ1 and human Cλ C regions; Expressed in COS-7 for ELISA and in CHO for BIACORE; also called hMBCq
B3: chimeric #23-57-137-1 antibody with human λ L chain C region (antibody, V domains shown)
VH: EVQLVESGGDLVKPGGSLKLSCAASGFTFSSYGMSWIRQTPDKRLEWVATISSGGSYTYYPDSVKGRFTISRDNAKNTLYLQMSSLKSEDTAMFYCARQTTMTYFAYWGQGTLVTVSA
VL: QLVLTQSSSASFSLGASAKLTCTLSSQHSTYTIEWYQQQPLKPPKYVMDLKQDGSHSTGDGIPDRFSGSSSGADRYLSISNIQPEDEAMYICGVGDTIKEQFVYVFGGGTKVTVLG
notes: It was expressed in COS-7 for ELISA and in CHO for BIACORE; also called chMBC; chH-chλ
B4: mouse FR1,2/human FR3,4 hybrid antibody (L chain m/hMBC1Laλ, humanized H chain version a) (antibody, V domains shown)
VH: QVQLVESGGGVVQPGRSLRLSCAASGFTFSSYGMSWVRQAPGKGLEWVATISSGGSYTYYPDSVKGRFTISRDNSKNTLYLQMNSLRAEDTAVYYCARQTTMTYFAYWGQGTLVTVSS
VL: QLVLTQSSSASFSLGASAKLTCTLSSQHSTYTIEWYQQQPLKPPKYVMDLKQDGSHSTGDGIPDRFSGSSSGAERYLTISSLQSEDEADYYCGVGDTIKEQFVYVFGGGTKLTVLG
notes: Human Cγ1 and human Cλ C regions; Expressed in COS-7
B5: human FR1,2/mouse FR3,4 hybrid antibody (L chain h/mMBC1L(λ), humanized H chain version a) (antibody, V domains shown)
VH: QVQLVESGGGVVQPGRSLRLSCAASGFTFSSYGMSWVRQAPGKGLEWVATISSGGSYTYYPDSVKGRFTISRDNSKNTLYLQMNSLRAEDTAVYYCARQTTMTYFAYWGQGTLVTVSS
VL: QLVLTQSPSASASLGASVKLTCTLSSQHSTYTIEWHQQQPEKGPRYLMKLKQDGSHSTGDGIPDRFSGSSSGADRYLSISNIQPEDEAMYICGVGDTIKEQFVYVFGGGTKVTVLG
notes: Human Cγ1 and human Cλ C regions; Expressed in COS-7; also called h/mMBC1Ld(λ)
B6: human FR1/mouse FR2,3,4 hybrid antibody (L chain hmmMBC1L(λ), humanized H chain version a) (antibody, V domains shown)
VH: QVQLVESGGGVVQPGRSLRLSCAASGFTFSSYGMSWVRQAPGKGLEWVATISSGGSYTYYPDSVKGRFTISRDNSKNTLYLQMNSLRAEDTAVYYCARQTTMTYFAYWGQGTLVTVSS
VL: QLVLTQSPSASASLGASVKLTCTLSSQHSTYTIEWYQQQPLKPPKYVMDLKQDGSHSTGDGIPDRFSGSSSGADRYLSISNIQPEDEAMYICGVGDTIKEQFVYVFGGGTKVTVLG
notes: as for B4
B7: mouse FR1/human FR2/mouse FR3,4 hybrid antibody (L chain mhmMBC1L(λ), humanized H chain version a) (antibody, V domains shown)
VH: QVQLVESGGGVVQPGRSLRLSCAASGFTFSSYGMSWVRQAPGKGLEWVATISSGGSYTYYPDSVKGRFTISRDNSKNTLYLQMNSLRAEDTAVYYCARQTTMTYFAYWGQGTLVTVSS
VL: QLVLTQSSSASFSLGASAKLTCTLSSQHSTYTIEWHQQQPEKGPRYLMKLKQDGSHSTGDGIPDRFSGSSSGADRYLSISNIQPEDEAMYICGVGDTIKEQFVYVFGGGTKVTVLG
notes: as for B4
B8: hH / hLa (antibody, V domains shown)
VH: QVQLVESGGGVVQPGRSLRLSCAASGFTFSSYGMSWVRQAPGKGLEWVATISSGGSYTYYPDSVKGRFTISRDNSKNTLYLQMNSLRAEDTAVYYCARQTTMTYFAYWGQGTLVTVSS
VL: QLVLTQSPSASASLGASVKLTCTLSSQHSTYTIEWHQQQPEKGPRYLMKLKQDGSHSTGDGIPDRFSGSSSGAERYLTISSLQSEDEADYYCGVGDTIKEQFVYVFGGGTKLTVL
notes: copies: 2 + 2
B9: hH / hLb (antibody, V domains shown)
VH: QVQLVESGGGVVQPGRSLRLSCAASGFTFSSYGMSWVRQAPGKGLEWVATISSGGSYTYYPDSVKGRFTISRDNSKNTLYLQMNSLRAEDTAVYYCARQTTMTYFAYWGQGTLVTVSS
VL: QLVLTQSPSASASLGASVKLTCTLSSQHSTYTIEWHQQQPEKPPRYLMDLKQDGSHSTGDGIPDRFSGSSSGAERYLTISSLQSEDEADYYCGVGDTIKEQFVYVFGGGTKLTVL
notes: copies: 2 + 2
B10: hH / hLc (antibody, V domains shown)
VH: QVQLVESGGGVVQPGRSLRLSCAASGFTFSSYGMSWVRQAPGKGLEWVATISSGGSYTYYPDSVKGRFTISRDNSKNTLYLQMNSLRAEDTAVYYCARQTTMTYFAYWGQGTLVTVSS
VL: QLVLTQSPSASASLGASVKLTCTLSSQHSTYTIEWHQQQPEKGPRYLMKLKQDGSHSTGDGIPDRFSGSSSGAERYLTISSLQPEDEADYYCGVGDTIKEQFVYVFGGGTKLTVL
notes: copies: 2 + 2
B11: hH / hLd (antibody, V domains shown)
VH: QVQLVESGGGVVQPGRSLRLSCAASGFTFSSYGMSWVRQAPGKGLEWVATISSGGSYTYYPDSVKGRFTISRDNSKNTLYLQMNSLRAEDTAVYYCARQTTMTYFAYWGQGTLVTVSS
VL: QLVLTQSPSASASLGASVKLTCTLSSQHSTYTIEWHQQQPEKGPRYLMKLKQDGSHSTGDGIPDRFSGSSSGAERYLTISSLQSEDEADYICGVGDTIKEQFVYVFGGGTKLTVL
notes: copies: 2 + 2
B12: humanized #23-57-137-1 antibody, H chain version a, L chain version o (antibody, V domains shown)
VH: QVQLVESGGGVVQPGRSLRLSCAASGFTFSSYGMSWVRQAPGKGLEWVATISSGGSYTYYPDSVKGRFTISRDNSKNTLYLQMNSLRAEDTAVYYCARQTTMTYFAYWGQGTLVTVSS
VL: QLVLTQSPSASASLGASVKLTCTLSSQHSTYTIEWYQQQPEKGPRYVMDLKQDGSHSTGDGIPDRFSGSSSGAERYLTISSLQSEDEADYYCGVGDTIKEQFVYVFGGGTKLTVLG
notes: as for B4
B13: hH / hLn (antibody, V domains shown)
VH: QVQLVESGGGVVQPGRSLRLSCAASGFTFSSYGMSWVRQAPGKGLEWVATISSGGSYTYYPDSVKGRFTISRDNSKNTLYLQMNSLRAEDTAVYYCARQTTMTYFAYWGQGTLVTVSS
VL: QLVLTQSPSASASLGASVKLTCTLSSQHSTYTIEWYQQQPEKGPRYVMKLKQDGSHSTGDGIPDRFSGSSSGAERYLTISSLQSEDEADYYCGVGDTIKEQFVYVFGGGTKLTVL
notes: copies: 2 + 2
B14: humanized #23-57-137-1 antibody, H chain version a, L chain version l (antibody, V domains shown)
VH: QVQLVESGGGVVQPGRSLRLSCAASGFTFSSYGMSWVRQAPGKGLEWVATISSGGSYTYYPDSVKGRFTISRDNSKNTLYLQMNSLRAEDTAVYYCARQTTMTYFAYWGQGTLVTVSS
VL: QLVLTQSPSASASLGASVKLTCTLSSQHSTYTIEWYQQQPEKGPKYVMDLKQDGSHSTGDGIPDRFSGSSSGAERYLTISSLQSEDEADYYCGVGDTIKEQFVYVFGGGTKLTVLG
notes: as for B4
B15: humanized #23-57-137-1 antibody, H chain version a, L chain version s (antibody, V domains shown)
VH: QVQLVESGGGVVQPGRSLRLSCAASGFTFSSYGMSWVRQAPGKGLEWVATISSGGSYTYYPDSVKGRFTISRDNSKNTLYLQMNSLRAEDTAVYYCARQTTMTYFAYWGQGTLVTVSS
VL: QLVLTQSPSASASLGASVKLTCTLSSQHSTYTIEWYQQQPEKGPKYVMDLKQDGSHSTGDGIPDRFSGSSSGAERYLTISSLQSEDEADYICGVGDTIKEQFVYVFGGGTKLTVLG
B16: humanized #23-57-137-1 antibody, H chain version a, L chain version t (antibody, V domains shown)
VH: QVQLVESGGGVVQPGRSLRLSCAASGFTFSSYGMSWVRQAPGKGLEWVATISSGGSYTYYPDSVKGRFTISRDNSKNTLYLQMNSLRAEDTAVYYCARQTTMTYFAYWGQGTLVTVSS
VL: QLVLTQSPSASASLGASVKLTCTLSSQHSTYTIEWYQQQPEKGPRYVMDLKQDGSHSTGDGIPDRFSGSSSGAERYLTISSLQSEDEADYICGVGDTIKEQFVYVFGGGTKLTVLG
notes: as for B4
B17: humanized #23-57-137-1 antibody, H chain version a, L chain version r (antibody, V domains shown)
VH: QVQLVESGGGVVQPGRSLRLSCAASGFTFSSYGMSWVRQAPGKGLEWVATISSGGSYTYYPDSVKGRFTISRDNSKNTLYLQMNSLRAEDTAVYYCARQTTMTYFAYWGQGTLVTVSS
VL: QLVLTQSPSASASLGASVKLTCTLSSQHSTYTIEWYQQQPEKGPRYLMDLKQDGSHSTGDGIPDRFSGSSSGAERYLTISSLQSEDEADYICGVGDTIKEQFVYVFGGGTKLTVLG

The first test deals with PTHrP (1-34+Cys) (human, C-terminal Cys coupled to sensor tip CM5 through PDEA (thiol coupling)). Put plainly: BIACORE (SPR), PTHrP (1-34+C) immobilised on CM5 through the C-terminal Cys, antibody as analyte. In general terms: SPR reads the build-up and loss of mass on a sensor chip optically.
Description: In this experiment, kinetic analysis of the antigen-antibody interaction using BIACORE was conducted. PTHrP(1-34+Cys) was used as an antigen and adsorbed onto the sensor tip specifically for C-terminals. Purified antibodies of various concentrations were used as an analyte. From the sensorgram obtained, kinetics parameters (binding rate constant “kass” and dissociation rate constant “kdiss”) were calculated.
As a running buffer, HBS (10 mM HEPES, pH 7.4; 0.15 M NaCl; 3.4 mM EDTA; 0.005% Surfactant P20) at a flow rate of 5 μl/min. was employed. The carboxyl groups of carboxymethyldextran on the sensor tip CM5 were activated by an injection of 100 μl of 0.05M N-hydroxysuccinimide (NHS)/0.2M N-ethyl-N′-(3-dimethylaminopropyl)carbodiimide hydrochloride (EDC) and an injection of 100 μl of 80 mM 2-(2-pyridinyldithio)ethanamine (PDEA)/0.1M borate buffer (pH 8.5), and an additional injection of 10 μl of 5 μg/ml PTHrP (1-34+C)/10 mM sodium acetate buffer (pH 5.0) to adsorbe onto the C-terminals of PTHrP (1-34+C) specifically for Cys residues. Subsequently, an injection of 100 μl of 50 mM (L)-cystein/1M NaCl/0.1M sodium formate buffer (pH 4.3) was conducted to block excessively activated groups. Subsequently, an injection of 10 μl of 0.1M glycine-HCl buffer (pH 2.5) and 10 μl of 10 mM HCl was conducted to wash the substances having non-covalent bonding.
The date file of interest was read and a comparison of the reaction patterns was conducted by overlaying the reaction regions of interest (FIGS. 20-24). […] Further, kinetic analysis of the interaction was conducted using an analysis software specifically designed for BIACORE “BIAevaluation 2.1” (Pharmacia) which is capable of calculating the kinetics parameters (binding rate constant “kass” and dissociation rate constant “kdiss”) by curve cutting (Tables 4 and 5).
As usually defined, the Kd is a measure of binding affinity in units of concentration. Low values mean a tighter complex, high ones a looser complex. As usually defined, the koff is the first-order rate constant of dissociation. Low values mean slow dissociation, high ones fast dissociation. A word on the kon: it is the rate constant with which the complex forms. Higher therefore signals faster complex formation. The molecule B1 came in with a dissociation constant Kd of 0.358 nM, a koff of 0.000316 s⁻¹ and a kon of 883000 M⁻¹ s⁻¹.

B2 registered a Kd of 0.225 nM, an off-rate constant (koff) of 0.000232 s⁻¹ and an on-rate constant (kon) of 1.03e+06 M⁻¹ s⁻¹.

Regarding B3, the Kd stood at 0.134 nM, the koff came to 0.000166 s⁻¹ and the kon is 1.24e+06 M⁻¹ s⁻¹.

Another test has as its target T1, human PTHrP (1-34) (human).
T1 construct: Synthetic peptide (Peninsula; Peptide Research Institute), coated on ELISA plates at 1 µg/ml or used in solid phase RIA; also called human parathyroid hormone related protein (1-34)
Description: ELISA on plate-coated human PTHrP (1-34) (1 µg/ml); bound antibody detected with alkaline phosphatase-conjugated goat anti-human IgG; O.D. 405/620. On the technique in general: In an ELISA, binding on a coated surface is turned into a signal by an enzyme label.
Description: (§1) An ELISA plate for determining antigen binding ability was prepared as follows. Each of the wells of a 96-well plate for ELISA (Maxisorp, NUNC) was coated with 100 μl of a coating buffer supplemented with 1 μg/ml of human PTHrP (1-34) and then blocked with 200 μl of a dilution buffer. Thereafter, into each of the wells, was added a culture supernatant of the COS-7 cells in which the hybrid antibody or humanized antibody was expressed or a solution of the purified hybrid antibody or the purified humanized antibody in stepwise dilution. After incubating at room temperature and washing with PBS-Tween20, 100 μl of alkaline phosphatase-conjugated goat anti-human IgG antibody (TAGO) was added to each of the wells. […] The solution was measured for absorbance at 405 nm using Microplate Reader (Bio Rad).
In the case of B4, the binding result is “binds”.

Turning to B5, the binding result was “no binding (tested: about 340 ng/ml)”.

For a further test, the target named is T1, human PTHrP (1-34). Described as above. The source holds these as a separate data set.
Description: as §1
Consider B6, for which the binding result is “binds”.

Regarding B3, the binding result is on record as “binds”.

Regarding B7, the binding result is “no binding (tested: about 250 ng/ml)”.

For a further test, the target named is T1, human PTHrP (1-34). Described as above. The source holds these as a separate data set.
Description: as §1
As for B8, the binding result is listed as “no binding (tested: about 390 ng/ml)”.

For B9, the binding result was “no binding (tested: about 370 ng/ml)”.

B10: the binding result was “no binding (tested: about 460 ng/ml)”.

Regarding B11, the binding result was “no binding (tested: about 510 ng/ml)”.

The target in another test is T1, human PTHrP (1-34). Described as above. The source holds these as a separate data set.
Description: as §1
Take B1: the binding result is reported as “binds”.

Turning to B12, the binding result is recorded as “binds”.

Turning to B13, the binding result is “no binding (tested: about 1650 ng/ml)”.

Regarding B14, the binding result is recorded as “binds”.

For another test, the target named is T1, human PTHrP (1-34). The description is as above. The source holds these as a separate data set.
Description: as §1
As for B15, the binding result is on record as “binds”.

For B2, the binding result is “binds”.

In the case of B16, the binding result was “binds”.

As to B17, the binding result is given as “binds”.
